Experimental data reported in paper PMC6920769, “Knockout of Arabidopsis Serotonin N-Acetyltransferase-2 Reduces Melatonin Levels and Delays Flowering” (Biomolecules, 2019).

Legend:
[1] = target: T1, AtSNAT1 (Arabidopsis thaliana, UniProt Q7X9V3); test: HPLC of N-acetylserotonin formed; assay type: biochemical; conditions: serotonin 0.5 mM
T1 construct: gene NSI

[2] = substrate: NCCc1c[nH]c2ccc(O)cc12; test: HPLC of N-acetylserotonin formed, Lineweaver-Burk; assay type: biochemical, Arabidopsis thaliana; conditions: acetyl-CoA 0.5 mM, 100 mM potassium phosphate pH 7.8, 45 °C, printed as Km for NAS (synthesis)
[3] = substrate: COc1ccc2[nH]cc(CCN)c2c1; test: HPLC of melatonin formed, Lineweaver-Burk; assay type: biochemical, Arabidopsis thaliana; conditions: acetyl-CoA 0.5 mM, 100 mM potassium phosphate pH 7.8, 45 °C

T1 sequence (Q7X9V3 59-258): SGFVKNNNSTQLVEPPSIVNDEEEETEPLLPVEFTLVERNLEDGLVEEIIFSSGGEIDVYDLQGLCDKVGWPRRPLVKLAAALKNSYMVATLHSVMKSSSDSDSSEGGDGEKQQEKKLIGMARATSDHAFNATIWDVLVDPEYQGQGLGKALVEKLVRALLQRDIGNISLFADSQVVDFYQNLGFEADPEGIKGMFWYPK

Molecule | HPLC of N-acetylserotonin formed [1] | Km [2] [µM] | Km [3] [µM]
NCCc1c[nH]c2ccc(O)cc12 [serotonin] | Melatonin-mediated inhibition of NAS synthesis by recombinant AtSNAT1 | – | –
AtSNAT2 (Arabidopsis thaliana) (protein, kinetics text says recombinant AtSNAT2 (not the truncated form)) MFLGGTISTPPASLRLRSTLNPQNAVTQSSSQATFPAAMQRKPPSYSISDEDLESRGFLLRRTTEGLNLDQLNSVFAAVGFPRRDTAKIEVALQHTDALLWVEYEKTRRPVAFARATGDGVFNAIIWDVVVDPSFQSCGLGKAVMERLIEDLQVKGICNIALYSEPRVLGFYRPLGFVSDPDGIKGMVFIRKQRNKK | – | 232 | 630
